These results are taken from article PMC4619449, “Heterodimerization of Two Pathological Mutants Enhances the Activity of Human Phosphomannomutase2” (PLoS ONE, 2015).

The target in data set [1] is T1, F119L phosphomannomutase2 (human) (UniProt O15305).
T1 sequence: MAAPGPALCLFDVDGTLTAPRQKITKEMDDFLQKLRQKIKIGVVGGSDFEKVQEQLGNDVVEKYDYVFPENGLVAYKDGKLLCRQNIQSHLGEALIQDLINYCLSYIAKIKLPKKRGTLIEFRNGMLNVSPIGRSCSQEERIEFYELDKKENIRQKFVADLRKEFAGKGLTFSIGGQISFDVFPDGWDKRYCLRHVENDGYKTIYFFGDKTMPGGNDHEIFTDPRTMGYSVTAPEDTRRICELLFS

Data set [2] deals with the molecule itself. Nature of the data set: SEC; analytical, BioSep-SEC-S3000 column, Hepes 20 mM pH 7.5, NaCl 150 mM, MgCl2 5 mM, room temperature, 0.5 ml/min; wt-PMM2 10 μg, F119L 7 μg, or mixture of 5 μg wt-PMM2 and 3.5 μg F119L.

B1: R141H phosphomannomutase2 (enzyme)
chain: MAAPGPALCLFDVDGTLTAPRQKITKEMDDFLQKLRQKIKIGVVGGSDFEKVQEQLGNDVVEKYDYVFPENGLVAYKDGKLLCRQNIQSHLGEALIQDLINYCLSYIAKIKLPKKRGTFIEFRNGMLNVSPIGRSCSQEEHIEFYELDKKENIRQKFVADLRKEFAGKGLTFSIGGQISFDVFPDGWDKRYCLRHVENDGYKTIYFFGDKTMPGGNDHEIFTDPRTMGYSVTAPEDTRRICELLFS
B1: the corrected specific phosphoglucomutase activity (per amount of F119L) of Superdex75 fractions, F119L:R141H 1:1 to 1:3.5, compared with F119L alone; 5 μM Glc-1,6-P2 and 40 μM Glc-1P in data set [1] worked out at 3 fold.

B2: wild type phosphomannomutase2 (enzyme, human, UniProt O15305-1 1-246, looked up)
chain: MAAPGPALCLFDVDGTLTAPRQKITKEMDDFLQKLRQKIKIGVVGGSDFEKVQEQLGNDVVEKYDYVFPENGLVAYKDGKLLCRQNIQSHLGEALIQDLINYCLSYIAKIKLPKKRGTFIEFRNGMLNVSPIGRSCSQEERIEFYELDKKENIRQKFVADLRKEFAGKGLTFSIGGQISFDVFPDGWDKRYCLRHVENDGYKTIYFFGDKTMPGGNDHEIFTDPRTMGYSVTAPEDTRRICELLFS
notes: Phosphomannomutase2 (PMM2), human, UniProt entry name PMM2_HUMAN; also called wt-PMM2; PMM2
In the case of B2, in data set [2], the binding result was “binds”.

B3: F119L phosphomannomutase2 (enzyme, human, UniProt O15305-1 1-246, looked up)
chain: MAAPGPALCLFDVDGTLTAPRQKITKEMDDFLQKLRQKIKIGVVGGSDFEKVQEQLGNDVVEKYDYVFPENGLVAYKDGKLLCRQNIQSHLGEALIQDLINYCLSYIAKIKLPKKRGTLIEFRNGMLNVSPIGRSCSQEERIEFYELDKKENIRQKFVADLRKEFAGKGLTFSIGGQISFDVFPDGWDKRYCLRHVENDGYKTIYFFGDKTMPGGNDHEIFTDPRTMGYSVTAPEDTRRICELLFS
notes: Phosphomannomutase2 (PMM2), human, pathological variant p.Phe119Leu (rs80338701); also called hypomorphic mutant
On to B3, for which the binding result in data set [2] is “binds”.
